B1: library; numbered along this chain (parent)
chain: MEVVDPQQLGMFTEGELMSVGMDTFIHRIDSTEVIYQPRRKRAKLIGKYLMGDLLGEGSYGKVKEVLDSETLCRRAVKILKKKKLRRIPNGEANVKKEIQLLRRLRHKNVIQLVDVLYNEEKQKMYMVMEYCVCGMQEMLDSVPEKRFPVCQAHGYFCQLIDGLEYLHSQGIVHKDIKPGNLLLTTGGTLKISDLGVAEALHPFAADDTCRTSQGSPAFQPPEIANGLDTFSGFKVDIWSAGVTLYNITTGLYPFEGDNIYKLFENIGKGSYAIPGDCGPPLSDLLKGMLEYEPAKRFSIRQIRQHSWFRKKHPPAEAPVPIPPSPDTKDRWRSMTVVPYLEDLHGADEDEDLFDIEDDIIYTQDFTVPGQVPEEEASHNGQRRGLPKAVCMNGTEAAQLSTKSRAEGRAPNPARKACSASSKIRRLSACKQQ

From the supplement of paper PMC12338614 come the findings set out here.

± gives the uncertainty stated by the source.

The variants in the data set derive from B1. As to the kind of experiment: STK11 functional score (HeLa growth suppression), rescaled enrichment; synonymous median = 1, nonsense median = 0 (normalised score). The note with it: with HeLa; variant type: missense. As for the experimental part: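 Deep mutational scan (TileSeq/POPCode codon randomisation) of full-length codon-optimised STK11 cDNA integrated at a Bxb1 landing pad (AAVS1) in HeLa cells. Restoring functional STK11 suppresses HeLa proliferation. Variant frequencies were measured by NGS before and after about two weeks of growth. The error-corrected enrichment log-ratio was rescaled so that synonymous median = 1 and nonsense median = 0, scores above 1 were compressed, and codon-level and three biological replicate scores were combined; error is the bootstrapped standard error. Scale: synonymous median = 1, nonsense median = 0; below 0.5 = damaging.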
As to MEVVDPQQLGMFTEGELMSVGMDTFIHRIDSTEVIYQPRRKRAKLIGKYLMGCLLGEGSYGKVKEVLDSETLCRRAVKILKKKKLRRIPNGEANVKKEIQLLRRLRHKNVIQLVDVLYNEEKQKMYMVMEYCVCGMQEMLDSVPEKRFPVCQAHGYFCQLIDGLEYLHSQGIVHKDIKPGNLLLTTGGTLKISDLGVAEALHPFAADDTCRTSQGSPAFQPPEIANGLDTFSGFKVDIWSAGVTLYNITTGLYPFEGDNIYKLFENIGKGSYAIPGDCGPPLSDLLKGMLEYEPAKRFSIRQIRQHSWFRKKHPPAEAPVPIPPSPDTKDRWRSMTVVPYLEDLHGADEDEDLFDIEDDIIYTQDFTVPGQVPEEEASHNGQRRGLPKAVCMNGTEAAQLSTKSRAEGRAPNPARKACSASSKIRRLSACKQQ [D53C], the STK11 functional score was found to be 1.1 ± 0.3.
With MEVVDPQQLGMFTEGELMSVGMDTFIHRIDSTEVIYQPRRKRAKLIGKYLMGGLLGEGSYGKVKEVLDSETLCRRAVKILKKKKLRRIPNGEANVKKEIQLLRRLRHKNVIQLVDVLYNEEKQKMYMVMEYCVCGMQEMLDSVPEKRFPVCQAHGYFCQLIDGLEYLHSQGIVHKDIKPGNLLLTTGGTLKISDLGVAEALHPFAADDTCRTSQGSPAFQPPEIANGLDTFSGFKVDIWSAGVTLYNITTGLYPFEGDNIYKLFENIGKGSYAIPGDCGPPLSDLLKGMLEYEPAKRFSIRQIRQHSWFRKKHPPAEAPVPIPPSPDTKDRWRSMTVVPYLEDLHGADEDEDLFDIEDDIIYTQDFTVPGQVPEEEASHNGQRRGLPKAVCMNGTEAAQLSTKSRAEGRAPNPARKACSASSKIRRLSACKQQ [D53G], the STK11 functional score was 0.726 ± 0.14.
Consider MEVVDPQQLGMFTEGELMSVGMDTFIHRIDSTEVIYQPRRKRAKLIGKYLMGALLGEGSYGKVKEVLDSETLCRRAVKILKKKKLRRIPNGEANVKKEIQLLRRLRHKNVIQLVDVLYNEEKQKMYMVMEYCVCGMQEMLDSVPEKRFPVCQAHGYFCQLIDGLEYLHSQGIVHKDIKPGNLLLTTGGTLKISDLGVAEALHPFAADDTCRTSQGSPAFQPPEIANGLDTFSGFKVDIWSAGVTLYNITTGLYPFEGDNIYKLFENIGKGSYAIPGDCGPPLSDLLKGMLEYEPAKRFSIRQIRQHSWFRKKHPPAEAPVPIPPSPDTKDRWRSMTVVPYLEDLHGADEDEDLFDIEDDIIYTQDFTVPGQVPEEEASHNGQRRGLPKAVCMNGTEAAQLSTKSRAEGRAPNPARKACSASSKIRRLSACKQQ [D53A], for which the STK11 functional score came to 1.07 ± 0.12.
On to MEVVDPQQLGMFTEGELMSVGMDTFIHRIDSTEVIYQPRRKRAKLIGKYLMGLLLGEGSYGKVKEVLDSETLCRRAVKILKKKKLRRIPNGEANVKKEIQLLRRLRHKNVIQLVDVLYNEEKQKMYMVMEYCVCGMQEMLDSVPEKRFPVCQAHGYFCQLIDGLEYLHSQGIVHKDIKPGNLLLTTGGTLKISDLGVAEALHPFAADDTCRTSQGSPAFQPPEIANGLDTFSGFKVDIWSAGVTLYNITTGLYPFEGDNIYKLFENIGKGSYAIPGDCGPPLSDLLKGMLEYEPAKRFSIRQIRQHSWFRKKHPPAEAPVPIPPSPDTKDRWRSMTVVPYLEDLHGADEDEDLFDIEDDIIYTQDFTVPGQVPEEEASHNGQRRGLPKAVCMNGTEAAQLSTKSRAEGRAPNPARKACSASSKIRRLSACKQQ [D53L], for which the STK11 functional score amounted to 0.555 ± 0.21.
As to MEVVDPQQLGMFTEGELMSVGMDTFIHRIDSTEVIYQPRRKRAKLIGKYLMGELLGEGSYGKVKEVLDSETLCRRAVKILKKKKLRRIPNGEANVKKEIQLLRRLRHKNVIQLVDVLYNEEKQKMYMVMEYCVCGMQEMLDSVPEKRFPVCQAHGYFCQLIDGLEYLHSQGIVHKDIKPGNLLLTTGGTLKISDLGVAEALHPFAADDTCRTSQGSPAFQPPEIANGLDTFSGFKVDIWSAGVTLYNITTGLYPFEGDNIYKLFENIGKGSYAIPGDCGPPLSDLLKGMLEYEPAKRFSIRQIRQHSWFRKKHPPAEAPVPIPPSPDTKDRWRSMTVVPYLEDLHGADEDEDLFDIEDDIIYTQDFTVPGQVPEEEASHNGQRRGLPKAVCMNGTEAAQLSTKSRAEGRAPNPARKACSASSKIRRLSACKQQ [D53E], the STK11 functional score is 0.779 ± 0.31.
With MEVVDPQQLGMFTEGELMSVGMDTFIHRIDSTEVIYQPRRKRAKLIGKYLMGHLLGEGSYGKVKEVLDSETLCRRAVKILKKKKLRRIPNGEANVKKEIQLLRRLRHKNVIQLVDVLYNEEKQKMYMVMEYCVCGMQEMLDSVPEKRFPVCQAHGYFCQLIDGLEYLHSQGIVHKDIKPGNLLLTTGGTLKISDLGVAEALHPFAADDTCRTSQGSPAFQPPEIANGLDTFSGFKVDIWSAGVTLYNITTGLYPFEGDNIYKLFENIGKGSYAIPGDCGPPLSDLLKGMLEYEPAKRFSIRQIRQHSWFRKKHPPAEAPVPIPPSPDTKDRWRSMTVVPYLEDLHGADEDEDLFDIEDDIIYTQDFTVPGQVPEEEASHNGQRRGLPKAVCMNGTEAAQLSTKSRAEGRAPNPARKACSASSKIRRLSACKQQ [D53H], the STK11 functional score stood at 1.23 ± 0.18.
On to MEVVDPQQLGMFTEGELMSVGMDTFIHRIDSTEVIYQPRRKRAKLIGKYLMLDLLGEGSYGKVKEVLDSETLCRRAVKILKKKKLRRIPNGEANVKKEIQLLRRLRHKNVIQLVDVLYNEEKQKMYMVMEYCVCGMQEMLDSVPEKRFPVCQAHGYFCQLIDGLEYLHSQGIVHKDIKPGNLLLTTGGTLKISDLGVAEALHPFAADDTCRTSQGSPAFQPPEIANGLDTFSGFKVDIWSAGVTLYNITTGLYPFEGDNIYKLFENIGKGSYAIPGDCGPPLSDLLKGMLEYEPAKRFSIRQIRQHSWFRKKHPPAEAPVPIPPSPDTKDRWRSMTVVPYLEDLHGADEDEDLFDIEDDIIYTQDFTVPGQVPEEEASHNGQRRGLPKAVCMNGTEAAQLSTKSRAEGRAPNPARKACSASSKIRRLSACKQQ [G52L], for which the STK11 functional score amounted to 1.37 ± 0.22.
Then MEVVDPQQLGMFTEGELMSVGMDTFIHRIDSTEVIYQPRRKRAKLIGKYLMCDLLGEGSYGKVKEVLDSETLCRRAVKILKKKKLRRIPNGEANVKKEIQLLRRLRHKNVIQLVDVLYNEEKQKMYMVMEYCVCGMQEMLDSVPEKRFPVCQAHGYFCQLIDGLEYLHSQGIVHKDIKPGNLLLTTGGTLKISDLGVAEALHPFAADDTCRTSQGSPAFQPPEIANGLDTFSGFKVDIWSAGVTLYNITTGLYPFEGDNIYKLFENIGKGSYAIPGDCGPPLSDLLKGMLEYEPAKRFSIRQIRQHSWFRKKHPPAEAPVPIPPSPDTKDRWRSMTVVPYLEDLHGADEDEDLFDIEDDIIYTQDFTVPGQVPEEEASHNGQRRGLPKAVCMNGTEAAQLSTKSRAEGRAPNPARKACSASSKIRRLSACKQQ [G52C], with 1.49 ± 0.16; and MEVVDPQQLGMFTEGELMSVGMDTFIHRIDSTEVIYQPRRKRAKLIGKYLMIDLLGEGSYGKVKEVLDSETLCRRAVKILKKKKLRRIPNGEANVKKEIQLLRRLRHKNVIQLVDVLYNEEKQKMYMVMEYCVCGMQEMLDSVPEKRFPVCQAHGYFCQLIDGLEYLHSQGIVHKDIKPGNLLLTTGGTLKISDLGVAEALHPFAADDTCRTSQGSPAFQPPEIANGLDTFSGFKVDIWSAGVTLYNITTGLYPFEGDNIYKLFENIGKGSYAIPGDCGPPLSDLLKGMLEYEPAKRFSIRQIRQHSWFRKKHPPAEAPVPIPPSPDTKDRWRSMTVVPYLEDLHGADEDEDLFDIEDDIIYTQDFTVPGQVPEEEASHNGQRRGLPKAVCMNGTEAAQLSTKSRAEGRAPNPARKACSASSKIRRLSACKQQ [G52I], with 1.64 ± 0.2.
For MEVVDPQQLGMFTEGELMSVGMDTFIHRIDSTEVIYQPRRKRAKLIGKYLMADLLGEGSYGKVKEVLDSETLCRRAVKILKKKKLRRIPNGEANVKKEIQLLRRLRHKNVIQLVDVLYNEEKQKMYMVMEYCVCGMQEMLDSVPEKRFPVCQAHGYFCQLIDGLEYLHSQGIVHKDIKPGNLLLTTGGTLKISDLGVAEALHPFAADDTCRTSQGSPAFQPPEIANGLDTFSGFKVDIWSAGVTLYNITTGLYPFEGDNIYKLFENIGKGSYAIPGDCGPPLSDLLKGMLEYEPAKRFSIRQIRQHSWFRKKHPPAEAPVPIPPSPDTKDRWRSMTVVPYLEDLHGADEDEDLFDIEDDIIYTQDFTVPGQVPEEEASHNGQRRGLPKAVCMNGTEAAQLSTKSRAEGRAPNPARKACSASSKIRRLSACKQQ [G52A], the STK11 functional score came to 0.893 ± 0.16.
MEVVDPQQLGMFTEGELMSVGMDTFIHRIDSTEVIYQPRRKRAKLIGKYLMSDLLGEGSYGKVKEVLDSETLCRRAVKILKKKKLRRIPNGEANVKKEIQLLRRLRHKNVIQLVDVLYNEEKQKMYMVMEYCVCGMQEMLDSVPEKRFPVCQAHGYFCQLIDGLEYLHSQGIVHKDIKPGNLLLTTGGTLKISDLGVAEALHPFAADDTCRTSQGSPAFQPPEIANGLDTFSGFKVDIWSAGVTLYNITTGLYPFEGDNIYKLFENIGKGSYAIPGDCGPPLSDLLKGMLEYEPAKRFSIRQIRQHSWFRKKHPPAEAPVPIPPSPDTKDRWRSMTVVPYLEDLHGADEDEDLFDIEDDIIYTQDFTVPGQVPEEEASHNGQRRGLPKAVCMNGTEAAQLSTKSRAEGRAPNPARKACSASSKIRRLSACKQQ [G52S]: the STK11 functional score was 1.53 ± 0.27.
Take MEVVDPQQLGMFTEGELMSVGMDTFIHRIDSTEVIYQPRRKRAKLIGKYLMFDLLGEGSYGKVKEVLDSETLCRRAVKILKKKKLRRIPNGEANVKKEIQLLRRLRHKNVIQLVDVLYNEEKQKMYMVMEYCVCGMQEMLDSVPEKRFPVCQAHGYFCQLIDGLEYLHSQGIVHKDIKPGNLLLTTGGTLKISDLGVAEALHPFAADDTCRTSQGSPAFQPPEIANGLDTFSGFKVDIWSAGVTLYNITTGLYPFEGDNIYKLFENIGKGSYAIPGDCGPPLSDLLKGMLEYEPAKRFSIRQIRQHSWFRKKHPPAEAPVPIPPSPDTKDRWRSMTVVPYLEDLHGADEDEDLFDIEDDIIYTQDFTVPGQVPEEEASHNGQRRGLPKAVCMNGTEAAQLSTKSRAEGRAPNPARKACSASSKIRRLSACKQQ [G52F]: the STK11 functional score is 1.63 ± 0.18.
As for MEVVDPQQLGMFTEGELMSVGMDTFIHRIDSTEVIYQPRRKRAKLIGKYLMVDLLGEGSYGKVKEVLDSETLCRRAVKILKKKKLRRIPNGEANVKKEIQLLRRLRHKNVIQLVDVLYNEEKQKMYMVMEYCVCGMQEMLDSVPEKRFPVCQAHGYFCQLIDGLEYLHSQGIVHKDIKPGNLLLTTGGTLKISDLGVAEALHPFAADDTCRTSQGSPAFQPPEIANGLDTFSGFKVDIWSAGVTLYNITTGLYPFEGDNIYKLFENIGKGSYAIPGDCGPPLSDLLKGMLEYEPAKRFSIRQIRQHSWFRKKHPPAEAPVPIPPSPDTKDRWRSMTVVPYLEDLHGADEDEDLFDIEDDIIYTQDFTVPGQVPEEEASHNGQRRGLPKAVCMNGTEAAQLSTKSRAEGRAPNPARKACSASSKIRRLSACKQQ [G52V], the STK11 functional score amounted to 1.1 ± 0.19.
In the case of MEVVDPQQLGMFTEGELMSVGMDTFIHRIDSTEVIYQPRRKRAKLIGKYLMMDLLGEGSYGKVKEVLDSETLCRRAVKILKKKKLRRIPNGEANVKKEIQLLRRLRHKNVIQLVDVLYNEEKQKMYMVMEYCVCGMQEMLDSVPEKRFPVCQAHGYFCQLIDGLEYLHSQGIVHKDIKPGNLLLTTGGTLKISDLGVAEALHPFAADDTCRTSQGSPAFQPPEIANGLDTFSGFKVDIWSAGVTLYNITTGLYPFEGDNIYKLFENIGKGSYAIPGDCGPPLSDLLKGMLEYEPAKRFSIRQIRQHSWFRKKHPPAEAPVPIPPSPDTKDRWRSMTVVPYLEDLHGADEDEDLFDIEDDIIYTQDFTVPGQVPEEEASHNGQRRGLPKAVCMNGTEAAQLSTKSRAEGRAPNPARKACSASSKIRRLSACKQQ [G52M], the STK11 functional score was -0.407 ± 0.21.
